Source: patent publication US20260151519A1 (AKTIS ONCOLOGY, published 2026)
Primed or numbered codes have the meaning given here. Where no end group is shown, it is not given here. [ ]: non-standard residue; d: D form. The star is where a group is joined. Biotin = O=C1N[C@H]2[C@H](CS[C@H]2CCCCC(=O)*)N1; Lys(Me3) = C[N+](C)(C)CCCC[C@H](N)C(=O)O; PEG4′ = not defined here

T1: Nectin-2 (human, UniProt Q92692 32-538)
T1 construct: whole, on cells; Plasma membrane, non-tethered secreted and tethered secreted forms in the library
T1 sequence (looked up): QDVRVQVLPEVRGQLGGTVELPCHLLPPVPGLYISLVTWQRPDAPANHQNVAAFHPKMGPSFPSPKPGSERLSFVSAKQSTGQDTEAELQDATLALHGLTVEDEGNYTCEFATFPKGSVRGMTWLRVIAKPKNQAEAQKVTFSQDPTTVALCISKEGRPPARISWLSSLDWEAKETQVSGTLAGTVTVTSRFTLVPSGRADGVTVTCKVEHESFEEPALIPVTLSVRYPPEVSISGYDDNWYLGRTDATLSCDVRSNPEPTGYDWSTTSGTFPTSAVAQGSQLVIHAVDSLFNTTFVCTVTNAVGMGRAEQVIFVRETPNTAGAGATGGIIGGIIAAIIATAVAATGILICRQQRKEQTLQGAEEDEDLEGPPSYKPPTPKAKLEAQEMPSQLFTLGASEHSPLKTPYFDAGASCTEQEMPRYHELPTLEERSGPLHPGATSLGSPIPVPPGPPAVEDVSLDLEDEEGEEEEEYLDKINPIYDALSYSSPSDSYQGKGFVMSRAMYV

T2: Human Nectin-4 (human, UniProt Q96NY8 32-349, limits assumed)
T2 construct: Protein immobilised on the SPR chip; also called target protein
T2 sequence: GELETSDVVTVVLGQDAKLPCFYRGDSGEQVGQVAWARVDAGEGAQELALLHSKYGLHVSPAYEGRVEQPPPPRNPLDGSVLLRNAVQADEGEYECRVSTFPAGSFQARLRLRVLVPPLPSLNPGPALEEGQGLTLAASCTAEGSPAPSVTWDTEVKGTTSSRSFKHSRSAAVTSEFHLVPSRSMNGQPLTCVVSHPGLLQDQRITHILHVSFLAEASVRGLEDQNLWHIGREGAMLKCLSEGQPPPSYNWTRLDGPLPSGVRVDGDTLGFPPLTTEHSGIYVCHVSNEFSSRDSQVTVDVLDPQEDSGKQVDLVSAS

T3: Human Nectin-4 expressed on cells (human, UniProt Q96NY8 32-510)
T3 construct: Endogenous on HT-1376 cells; also called endogenous Nectin-4 on HT-1376 cells; cell surface Nectin-4
T3 sequence: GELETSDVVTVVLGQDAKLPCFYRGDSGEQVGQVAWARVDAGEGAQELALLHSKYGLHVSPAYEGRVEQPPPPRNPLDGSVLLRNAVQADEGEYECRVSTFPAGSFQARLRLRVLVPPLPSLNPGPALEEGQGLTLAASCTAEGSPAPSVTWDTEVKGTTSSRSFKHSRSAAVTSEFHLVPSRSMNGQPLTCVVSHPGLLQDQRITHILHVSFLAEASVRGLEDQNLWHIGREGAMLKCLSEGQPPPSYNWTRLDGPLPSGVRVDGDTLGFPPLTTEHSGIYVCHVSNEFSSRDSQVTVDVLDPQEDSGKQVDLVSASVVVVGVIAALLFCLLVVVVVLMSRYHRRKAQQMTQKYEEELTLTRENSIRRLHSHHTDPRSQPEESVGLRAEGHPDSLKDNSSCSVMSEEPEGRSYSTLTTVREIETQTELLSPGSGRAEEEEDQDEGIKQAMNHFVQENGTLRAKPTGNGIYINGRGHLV


Experiments:
[1] = target: T1, Nectin-2; test: cell microarray on HEK293 cells, pooled compounds
Method: Initially, two pools of compounds were tested. […] To perform this assay, HEK293 cells were plated on a dish and localized spots of cells were transiently over-expressed with a single cDNA encoding for GFP and one of the 6,416 targets. Included in this library were multiple clones for the Nectin family members, including plasma membrane, non-tethered secreted, and tethered secreted forms of Nectin-1, 2, 3, and 4. Secreted protein targets were tethered to the plasma membrane to aid in detection. The molecule pools were incubated on the fixed, over-expressing cell microarrays (n=2 per protein), and binding was visualized using Alexa Fluor 647 streptavidin fluorescence.

[2] = target: T2, Human Nectin-4; test: Table 2B (DELFIA or SPR)
[3] = target: T3, Human Nectin-4 expressed on cells; test: competition binding assay (DELFIA, fluorescence at 615 nm) on HT-1376 cells: 12 concentrations of C253 against 10 nM Eu-labelled C307 as the displaced tracer
Method: (§1) A competition binding assay was utilized to determine the Kᵢ for miniproteins bound to Nectin-4 expressed on the surface of cancer cells. […] Miniprotein incubations occurred for 90 min to reach binding equilibrium. […] After miniprotein incubations, the wells were washed to remove unbound ligand and treated according to manufacturer instructions for a DELFIA® (dissociation-enhanced lanthanide fluorescent immunoassay, Revvity Health Sciences). In brief, washed wells were incubated with 15 μL of 2 M HCl for 2 h at 37° C., after which 17 μL of 2 M NaOH and 30 μL of DELFIA® enhancement solution were added to each well and incubated for an additional 30 min. The remaining Eu reacted with the DELFIA® enhancer solution to generate fluorescence measured on the Envision instrument. Relative fluorescence units (RFUs) were measured as a function of test article concentration in order to calculate an IC50. The Ki can then be calculated using the Cheng-Prusoff equation for converting a measured IC50 to Ki: […]

[4] = target: T3, Human Nectin-4 expressed on cells; test: flow cytometry dose response, biotinylated C253 detected with Strep-PE, Delta MFI = C253 MFI minus vehicle MFI, HT-1376-P cells
Method: Fluorescent imaging for Nectin-4 binding was conducted using assays as described in Example 3. Briefly, Nectin-4 knockout HT-1376 cells were generated via CRISPR/Cas9 mediated gene deletion followed by single cell cloning. […] Flow cytometry was performed to measure on-target binding to cell surface Nectin-4. […]

[5] = target: T3, Human Nectin-4 expressed on cells; test: DELFIA competition against 10 nM C307, HT-1376 cells
Method: as §1

| Binder | binding result [1] | Kd [2] [nM] | IC50 (read off the curve) [3] [nM] | EC50 (read off the curve) [4] [nM] | Ki [5] [nM] |
| --- | --- | --- | --- | --- | --- |
| {Biotin-PEG4′}-CDYDEQFFTALKRLRGADICEYIQASFQYLPGECIEEILDNLGCS (designed binder, cysteine pairing not given here) [C208] | no binding (tested: 2 µg/mL) | 1.02 |  |  |  |
| {Biotin-PEG4′}-CDYDEQFFTALARLRGADICEYIQASFQYLPGECIEEILDNLGCS (designed binder, cysteine pairing not given here) [C247] | no binding (tested: 2 µg/mL) |  |  |  |  |
| {Biotin-PEG4′}-CEYDEQFFTALKRLRGDDICDYIQASFQYLPGLCIEEILDNLGCS (designed binder, cysteine pairing not given here) [C197] | no binding (tested: 2 µg/mL) | 0.97 |  |  |  |
| {Biotin-PEG4′}-CDYDEQFFTALKRLRGGDICEYIQASFQYLPGLCIEEILDNLGCS (designed binder, cysteine pairing not given here) [C190] | no binding (tested: 2 µg/mL) | 0.71 |  |  |  |
| {Biotin-PEG4′}-CEYDEEFFTALARLRGGDICQYIQA[Lys(Me3)]FQYLPALCIEEILDNLGCS (designed binder, cysteine pairing not given here) [C253] | no binding (tested: 2 µg/mL) |  | ~2 | ~0.8 | 0.82 |
